Laboratory results reported in a protein production outcome set (Wang et al. 2014).

Assay: label from the status in PepcDB records

Row | Sequence | protein production
1 | MSEEIREVKVLEKPWVEKYRPQRLDDIVGQEHIVKRLKHYVKTGSMPHLLFAGPPGVGKCLTGDTKVIANGQLFELGELVEKLSGGRFGPTPVKGLKVLGIDEDGKLREFEVQYVYKDRTDRLIKIKTQLGRELKVTPYHPLLVNRENGEIKWIKAEELKPGDKLAIPSFLPLITGENPLAEWLGYFMGSGYAYPSNSVITFTNEDPLIRQRFMELTEKLFPDAKIRERIHADGTPEVYVVSRKAWSLVNSISLTLIPREGWKGIRSFLRAYSDCNGRIESDAIVLSTDNNDMAQQIAYALASFGIIAKMDGEDVIISGSDNIERFLNEIGFSTQSKLKEAQKLIRKTNVRSDGLKINYELISYVKDRLRLNVNDKRNLSYRNAKELSWELMKEIYYRLEELERLKKVLSEPILIDWNEVAKKSDEVIEKAKIRAEKLLEYIKGERKPSFKEYIEIAKVLGINVERTIEAMKIFAKRYSSYAEIGRKLGTWNFNVKTILESDTVDNVEILEKIRKIELELIEEILSDGKLKEGIAYLIFLFQNELYWDEITEVKELRGDFIIYDLHVPGYHNFIAGNMPTVVHNTTAALALARELFGENWRHNFLELNASDERGINVIREKVKEFARTKPIGGASFKIIFLDEADALTQDAQQALRRTMEMFSSNVRFILSCNYSSKIIEPIQSRCAIFRFRPLRDEDIAKRLRYIAENEGLELTEEGLQAILYIAEGDMRRAINILQAAAALDKKITDENVFMVASRARPEDIREMMLLALKGNFLKAREKLREILLKQGLSGEDVLVQMHKEVFNLPIEEPKKVLLADKIGEYNFRLVEGANEIIQLEALLAQFTLIGKK | failed
2 | MSEEKNLVINANDSLGEIVIAPEVIEVIIGIAASKVEGVYGMRGTFANNVNELLGRAAHGKGVYLRTEEEGLKVDIYCYLNYGVSVPKVALEMQDRVKQQVLFMTDIDLVEVNIHVVAVVPEKIPQPDLNELFPEDEDGEENELEHHHHHH | not failed
3 | MSEHHHDHSHDHGHAGHQYHAVGSIQIAFFMNFGFTILEAIGGVMTNSTAILANAVHDFGDSIAVGQAWYFEKLSGRTGDKRYSYGYQRFSIFGALVSALMMLASSFLVLVEAVPRLLHPEHPNAKGMVAFALVGVAVNALAMLRLKGQAGMNARVIALHLLEDVLGWLSVLLVSVVLLFTSLPILDPLLAIVITLYILTGVVKNLRAMVPVFLQAVPSELSLDKVVADIQQTEHVTGVHHAHLWSLDGQRTVFTAHLEIGCDVNPAEYASIKEEIRKLVARHGIYHSTVELEYPGEVCRNESHKDG | failed
4 | MSEHPKKVVLLDLDGTLTKSDPGIIGCVVKAFEEMGYPVPDDAELHRFIGPAISESMQRNGIPDDKLDEGVRIYRKYYADEAVFDDPNNPGQKVPGRLNNTIYQGIPEQLAKLRADGYYLAIASCKPQYQCIPICEHFHLDTMVDGIYGASEDNSRLDKDQVIRWAFQHIDFDENAGDKALMVGDRWTDADGAKACGLDCLGCGWGYAEPGELKAHGAYRILDSVDELAQAVEEYFA | not failed
5 | MSEILVLNCGSSSVKFALINPHTSQSLVTGLAENIATKNCKVVFKAEHKIVKYLENGSYKDVFEMLKDFLVENKHLEKIVAIGHRVVHGGQYFSKSVLINADSLEKIKACIALAPLHNPAHIEGIRFCQQIFPELPQVAVFDTAFHQTMPSYIAEYAIPYELTHKHNIRKYGAHGTSHKYVSEQAAKILTQQKANVIVAHLGNGCSITAVVDGKSIDTSMGLTPLDGLVMGTRSGCIDPSIFAYISDNLGWSVTEITNMLNKQSGLLGICGHNDMREVSQLAAKGDSLAKLAIEIFSHRVAKFVASYMIYFNKLDALVFTGGIGENAANIRKNIISKLANLGFMIDHQKNSNSETFINSKNSHNIMVIATNEELMIAQETQNLI | not failed
6 | MSEKFDCHYCRDPLQGKKYVQKDGRHCCLKCFDKFCANTCVDCRKPISADAKEVHYKNRYWHDNCFRCAKCLHPLASETFVSKDGKILCNKCATREDSPRCKGCFKAIVAGDQNVEYKGTVWHKDCFTCSNCKQVIGTGSFFPKGEDFYCVTCHETKFAKHCVKCNKAITSGGITYQDQPWHAECFVCVTCSKKLAGQRFTAVEDQYYCVDCYKNFVAKKCAGCKNPITGKRTVSRVSHPVSKARKSPVCHGKRLPLTLFPSANLRGRHPGGERTCPSWVVVLYRKNRSLAAPRGPGLVKAPVWWPMKDNPGTTTASTAKNAP | failed
7 | MSEKLQKVLARAGHGSRREIESIIEAGRVSVDGKIAKLGDRVEVTPGLKIRIDGHLISVRESAEQICRVLAYYKPEGELCTRNDPEGRPTVFDRLPKLRGARWIAVGRLDVNTCGLLLFTTDGELANRLMHPSREVEREYAVRVFGQVDDAKLRDLSRGVQLEDGPAAFKTIKFSGGEGINQWYNVTLTEGRNREVRRLWEAVGVQVSRLIRVRYGDIPLPKGLPRGGWTELDLAQTNYLRELVELPPETSSKVAVEKDRRRMKANQIRRAVKRHSQVSGGRRSGGRNNNG | not failed
8 | MSEKREKQTKSKRRIWRGVTTATASLLTLSMSATLVIDGFRTDIDKFLGTQSTKMVTEDVSAEDYTFQSDYSSTTELLDSIEDLGERMNEEGSVLLKNENAALPLSKEETQKISLLGFSSYYPVQGGDFGSTLSENKGTDADTVDMLEAFESKGFEMNPTLKKMYQGLKEEFKSEAVLPWGVTTYYRATAPATTGVFTSLEPETATLDEAEPNWKKSMTDYNVMIVTLARAAGENANYTPGEDGVNPEQDLNQADPLGLSDTERAIIDEAVNAKKENNGKLIVMLNNASAMEIEEIKNNTGVDAILEVGLPGGYGFYGVADVLSGEVNPSGHLADTYAVDNSSSPAAQNYGNYEWTNADSAYSINSEIVEAEGIYTGYKYYETRYADTVLGQGNASDKTGSSNGKAWNYEDEVSYPFGYGLSYTTFSQTLDSLDVNLEDKTVTAKVTVKNTGDVAGKDVVQLYTSLPYTEYDKEHAVEKAAVQLLDYEKTGVLQPGESVTVEITADAQDMASWDSTCDNAAGTKGNWILDAGDYYFTVGNGSHEAVNNVLAAQGMTKANGMTDAGNAANVKKWTLDTFDSETFAYSKNGTAVENQLQDMDLNYYMPDTVTYLSRSDWKATWPKTYKDLTATDEMIEVMKNNLVEIKEQGNPDEVTFGEDNGLTLASLKGETDLTNEKWTDLIDQITLEEAMIRTGFGGTSTKSIVSIVSPEAVQNDGPNGFNSYTLGQYANTDTDSADPYVIDPDDKNLNYKFGTMSNETVIAQTFSKEMAAEYGAVTGNYSIWSNLPILWGAGTNLHRTPYNARNHEYYSEDAILTAYQAAAYIAAGKEYGCIIAPKHFAFNDTEINRSGIATFMTEQKARENELRGTQASVEDAQTLGMMTTFNRIGCTAGNAHYGLLMNILRKEWGFQGLMSEDFIQDANYSVLKEAVHCGVTMTCNTGDSNMEAVTAKWNYWTTEAVSKDASMMQDLKNVMMWQNYALANSNAMDGLNETSQIKDVRTWYDNALTATSAVLALLTLAAAAMYIRDAKRRKNS | failed
9 | MSELAASLLSRVILPRPGEPLDVRKLYLEESTTNARRAHAPTRTSLQIGAESEVSFATYFNAFPASYWRRWTTCKSVVLRVQVTGAGRVDVYRTKATGARIFVEGHDFTGTEDQPAAVETEVVLQPFEDGGWVWFDITTDTAVTLHSGGWYATSPAPGTANIAVGIPTFNRPADCVNALRELTADPLVDQVIGAVIVPDQGERKVRDHPDFPAAAARLGSRLSIHDQPNLGGSGGYSRVMYEALKNTDCQQILFMDDDIRLEPDSILRVLAMHRFAKAPMLVGGQMLNLQEPSHLHIMGEVVDRSIFMWTAAPHAEYDHDFAEYPLNDNNSRSKLLHRRIDVDYNGWWTCMIPRQVAEELGQPLPLFIKWDDADYGLRAAEHGYPTVTLPGAAIWHMAWSDKDDAIDWQAYFHLRNRLVVAAMHWDGPKAQVIGLVRSHLKATLKHLACLEYSTVAIQNKAIDDFLAGPEHIFSILESALPQVHRIRKSYPDAVVLPAASELPPPLHKNKAMKPPVNPLVIGYRLARGIMHNLTAANPQHHRRPEFNVPTQDARWFLLCTVDGATVTTADGCGVVYRQRDRAKMFALLWQSLRRQRQLLKRFEEMRRIYRDALPTLSSKQKWETALLPAANQEPEHG | failed
10 | MSELILHHYPTSLFAEKARLMLGFKGVNWRSVTIPSIMPKPDLTALTGGYRKTPVLQIGADIYCDTALMARRLEQEKASPAFYPQGQEFAVAGLAAWADSVLFLHAVSLVFQPESMAVRFAKVPPDAAKAFIADRSMLFNGGTASRPPVEQVKHQWPTFMSRLESQLSHGGDFLFGAPSIADFSVAHTLWFLKQTPVTAPFVDDYPSVSVWLDRVLGFGHGSLSDLSSAAAIEIASNATPAPLPDETFIDPNGFKAGDKVAIAAVDYGVEAVEGELMFTGREELILRREDNRAGVVHVHFPRLGFRVEKR | not failed
11 | MSELSTEAPAQSAKPTIYFDGVSSRRRQVTLTLGDALEIVEEGATPVRWAYADIRRADSPAGILRLASTFAPPLARLEIRDTALAADVSVRCMRLDEHQTTRRGIAKIVGWSVAAAVSIVCVVLFGVPLAADRLAPLVPKPIERRIGDASEVQVKTIFGGRTCEDPAGKAAFTKLVNRLRDAAGLDDDSMTAGVLPTSVPNAFALPGGKVFLLQGLLDRAESPDELAGILAHELGHLKHHDNMRGLIYNGGTSFLIGLLFGDVTGSSAVIFASRSVVEASYSREAETGADTFAIDIMHALGRSPRPSAELMFRITGKEGGSGFTILSSHPLTEDRLARMTKEDRPVSGPPLLTDAEWRALKGICGSGKI | failed
12 | MSELVRKLSGTAPNPAFPRGAVDTQMHMYLPGYPALPGGPGLPPGALPGPEDYRRLMQWLGIDRVIITQGNAHQRDNGNTLACVAEMGEAAHAVVIIDATTTEKDMEKLTAAGTVGARIMDLPGGAVNLSELDAVDERAHAADWMVAVQFDGNGLLDHLPRLQKIRSRWVFDHHGKFFKGIRTDGPEMAALLKLIDRGNLWFKFAGVYESSRKSWPYADVAAFSRVIAAHAPERIVWGTNWPHNSVRETAAYPDDARLAELTLGWLPDEAARHRALVENPEALFKLSPVKAT | failed
13 | MSENLAITIATIVVKLFAIIDPFSVLPFLLAIYEEANRDSQEKVSWNYMINKITIAILILLTLFSLIGRPLLDFLGLSAQALQIAGGVLLVYLGIDTMGGFQQLRFIRSLREAIVTPIATPLLVGPGTMTALISLSVDYNPLELVISSGIVTLLVYLSLLSGPYLVKILGQTGTVAAGRFTAIIIAAFGVQLILSGISQLNFK | failed
14 | MSEPLHALARQLEQAIRASEPFQQLKRAYEDVRRDETAYRMFANVRDIQLRLHEKQMRGAAILPDEIEQAQKAMALAQQNEKLARLMALEQQMSITIAEVQQIAMKPLEELHRSFMEGR | not failed
15 | MSEPLLHLTERSLWDAARDRGTYEMATRGRTLQEEGFIHCSLRHQLPGVAALLYGSRAGSDELVVLVVDAERLAAPVRYEAVGPGGEEFPHVYGPIPVSAVVDVEVWTGGEAASALEHHHHHH | not failed
16 | MSEPVIKSLLDTDMYKITMHAAVFTNFPDVTVTYKYTNRSSQLTFNKEAINWLKEQFSYLGNLRFTEEEIEYLKQEIPYLPSAYIKYISSSNYKLHPEEQISFTSEEIEGKPTHYKLKILVSGSWKDTILYEIPLLSLISEAYFKFVDIDWDYENQLEQAEKKAETLFDNGIRFSEFGTRRRRSLKAQDLIMQGIMKAVNGNPDRNKSLLLGTSNILFAKKYGVKPIGTVAHEWVMGVASISEDYLHANKNAMDCWINTFGAKNAGLALTDTFGTDDFLKSFRPPYSDAYVGVRQDSGDPVEYTKKISHHYHDVLKLPKFSKIICYSDSLNVEKAITYSHAAKENGMLATFGIGTNFTNDFRKKSEPQVKSEPLNIVIKLLEVNGNHAIKISDNLGKNMGDPATVKRVKEELGYTERSWSGDNEAHRWTZ | not failed
17 | MSEQQHVRADGTVTFLPHRLNRHPVVVRGLTADELWICCGLSGAAGLLVGAPLSWVFRTIAIAPTFVVLGVALGVFIGGGILRRLKRGRPDTWLYRQLQWRIATGHPLMAGWVGGHVLISRSGFWSTRRSMR | failed
18 | MSERRDAILKASATAIAQRGIRGLRVNDVAEVAGVSPGLLYYHFKDRIGLLEAALNYINDRARAYRSEGEGSGDSARDRLTRSLLGEIQDRPEVVENSLAWNELRASAVYEEALRDPLARTTAAWVSEIADAIVQAQATGEISRSLDPQPTAVTMTALVEGLSGRWLCKEISTEDARSHLLGAIDVVMSEPTHHTADTPVTPTPKEYR | not failed
